Results: patent publication US11994512B2, “Single-cell genomic methods to generate ex vivo cell systems that recapitulate in vivo biology with improved fidelity” (Massachusetts Institute of Technology, priority 2018, dated 2024)

B1: Q9QXV0 (protein, UniProt Q9QXV0 1-258, looked up)
chain: MAGSPLLCGPRAGGVGILVLLLLGLLRLPPTLSARPVKEPRSLSAASAPLVETSTPLRLRRAVPRGEAAGAVQELARALAHLLEAERQERARAEAQEAEDQQARVLAQLLRAWGSPRASDPPLAPDDDPDAPAAQLARALLRARLDPAALAAQLVPAPAAAPRPRPPVYDDGPTGPDVEDAGDETPDVDPELLRYLLGRILTGSSEPEAAPAPRRLRRSVDQDLGPEVPPENVLGALLRVKRLENPSPQAPARRLLPP
modifications: full-length
B2: Q9JMH7 (protein, UniProt Q9JMH7 1-418, looked up)
chain: MEEVPPYSLSSTLFQQEEQSGVTYRIPALLYLPPTHTFLAFAEKRTSVRDEDAACLVLRRGLMKGRSVQWGPQRLLMEATLPGHRTMNPCPVWEKNTGRVYLFFICVRGHVTERCQIVWGKNAARLCFLCSEDAGCSWGEVKDLTEEVIGSEVKRWATFAVGPGHGIQLHSGRLIIPAYAYYVSRWFLCFACSVKPHSLMIYSDDFGVTWHHGKFIEPQVTGECQVAEVAGTAGNPVLYCSARTPSRFRAEAFSTDSGGCFQKPTLNPQLHEPRTGCQGSVVSFRPLKMPNTYQDSIGKGAPATQKCPLLDSPLEVEKGAETPSATWLLYSHPTSKRKRINLGIYYNRNPLEVNCWSRPWILNRGPSGYSDLAVVEEQDLVACLFECGEKNEYERIDFCLFSDHEVLSCEDCTSPSSD
modifications: full-length
B3: Q9QXE2 (protein, UniProt Q9QXE2 1-573, looked up)
chain: MDPQGIVKAFPKRKKSHADLSSKALAKIPKREVGEARGWLSSLRAHIMPAGIGRARAELFEKQIIHHGGQVCSAQAPGVTHIVVDEDMDYERALRLLRLPQLPPGAQLVKSTWLSLCLQEGRLTDTEGFSLPMPKRSLDEPQPSKSGQDASAPGTQRDLPRTTLSLSPPHTRAVSPPPTAEKPSRTQAQLSSEDETSDGEGPQVSSADLQALITGHYPTPPEEDGGPDPAPEALDKWVCAQPSSQKATNYNLHITEKLEVLAKAYSVQGDKWRALGYAKAINALKSFHKPVSSYQEACSIPGIGKRMAEKVMEILESGHLRKLDHISDSVPVLELFSNIWGAGTKTAQMWYHQGFRNLEDLQSLGSLTAQQAIGLKHYDDFLDRMPREEAAEIEQTVRISAQAFNPGLLCVACGSYRRGKMTCGDVDVLITHPDGRSHRGIFSCLLDSLRQQGFLTDDLVSQEENGQQQKYLGVCRLPGPGKRHRRLDIIVVPYCEFACALLYFTGSAHFNRSMRALAKTKGMSLSEHALSAAVVRNSQGVKVGPGQVLPTPTEKDVFKHLGLPYREPAERDW
modifications: full-length
B4: Q9QYY9 (protein, UniProt Q9QYY9 1-377, looked up)
chain: MGTQGKVIKCKAAIAWKTGSPLCIEEIEVSPPKACEVRIQVIATCVCPTDINATDPKKKALFPVVLGHECAGIVESVGPGVTNFKPGDKVIPFFAPQCKRCKLCLSPLTNLCGKLRNFKYPTIDQELMEDRTSRFTCKGRSIYHFMGVSSFSQYTVVSEANLARVDDEANLERVCLIGCGFSSGYGAAINTAKVTPSSTCAVFGLGCVGLSAIIGCKIAGASRIIAIDINGEKFPKAKALGATDCLNPRELDKPVQDVITELTAGGVDYSLDCAGTAQTLKAAVDCTVLGWGSCTVVGAKVDKMTIPTVDVILGRSINGTFFGGWKSVDSVPNLVSDYKNKKFDLDLLVTHALPFESINDAIDLMKEGKSIRTILTF
modifications: full-length
B5: Q9QXD6 (protein, UniProt Q9QXD6 1-338, looked up)
chain: MANHAPFETDISTLTRFVMEQGRKAQGTGELTQLLNSLCTAIKAISSAVRQAGIAQLYGIAGSTNVTGDQVKKLDILSNDLVINMLKSSYATCVLVSEENTNAIIIEPEKRGKYVVCFDPLDGSSNIDCLVSIGTIFGIYRKKSTDEPSEKDALQPGRDLVAAGYALYGSATMLVLAMDCGVNCFMLDPSIGEFIMVDRDVKMKKKGNIYSLNEGYAKDFDPAINEYLQRKKFPPDGSAPYGARYVGSMVADIHRTLVYGGIFLYPANKKSPSGKLRLLYECNPIAYVMEKAGGLATTGDKDILDIVPTEIHQKAPVVMGSSEDVQEFLEIYRKHKAK
modifications: full-length
B6: Q9R022 (protein, UniProt Q9R022 1-198, looked up)
chain: MDAILNYRPEGSEDYYALLGCDELSSVEQILAEFKIRALECHPDKHPENSKAVETFQKLQKAKEILCNAESRARYDHWRRSQMSMPFEQWEALADSVKTSMHWAVRSKKDLMLEGSGQTFTSSVPNKERSEQRETKKGDPDSNPEKMKQKEPKFPEEGISPQNPDSPGLSDLNCGHLRFRWSGDAPSELLRKFRNYEI
modifications: full-length
B7: Q9R098 (protein, UniProt Q9R098 1-653, looked up)
chain: MGRQAWISSLCPLPRPCPFLLLLLLLVVPRGAQPQAGRNHTEPPGPNVTATPVTPTIPVISGNVSTSTESAPAAETEGPQSERYPPPSSSSPPGGQVLTESGQPCRFPFRYGGRMLHSCTSEGSAYRKWCATTHNYDRDRAWGYCAEVTLPVEGPAILDPCASGPCLNGGTCSSTHDHGSYHCSCPLAFTGKDCGTEKCFDETRYEYFEVGDHWARVSEGHVEQCGCMEGQARCEDTHHTACLSSPCLNGGTCHLIVGTGTSVCTCPLGYAGRFCNIVPTEHCFLGNGTEYRGVASTAASGLSCLAWNSDLLYQELHVDSVAAAVLLGLGPHAYCRNPDKDERPWCYVVKDNALSWEYCRLTACESLARVHSQTPEILAALPESAPAVRPTCGKRHKKRTFLRPRIIGGSSSLPGSHPWLAAIYIGNSFCAGSLVHTCWVVSAAHCFANSPPRDSITVVLGQHFFNRTTDVTQTFGIEKYVPYTLYSVFNPNNHDLVLIRLKKKGERCAVRSQFVQPICLPEAGSSFPTGHKCQIAGWGHMDENVSSYSNSLLEALVPLVADHKCSSPEVYGADISPNMLCAGYFDCKSDACQGDSGGPLVCEKNGVAYLYGIISWGDGCGRLNKPGVYTRVANYVDWINDRIRPPKRPVATS
modifications: full-length
B8: Q9QYB2 (protein, UniProt Q9QYB2 1-751, looked up)
chain: MAVPAALIPPTQLVPPQPPISTSASSSGTTTSTSSATSSPAPSIGPPASSGPTLFRPEPIASSASSSAAATVTSPGGGGGGSGGGGGSGGNGGGGGSNCNPSLAAGSSGGGVSAGGGGASSTPITASTGSSSSSSSSSSSSSSSSSSSSSSSSSSSCGPLPGKPVYSTPSPVENTPQNNECKMVDLRGAKVASFTVEGCELICLPQAFDLFLKHLVGGLHTVYTKLKRLEITPVVCNVEQVRILRGLGAIQPGVNRCKLISRKDFETLYNDCTNASSRPGRPPKRTQSVTSPENSHIMPHSVPGLMSPGIIPPTGLTAAAAAAAAATNAAIAEAMKVKKIKLEAMSNYHASNNQHGADSENGDMNSSVGSSGGSWDKETLHSPPSQGSQAPVAHARMPAAFSLPVSHPLNHLQHSHLPPNGLELPFMMMPHPLIPVSLPPASVTMAMSQMNHLSTIANMAAAAQVQSPPSRVETSVIKERVPDSPSPAPSLEEGRRPGSHPSSHRSSSVSSSPARTESSSDRIPVHQNGLSMNQMLMGLSPNVLPGPKEGDLAGHDMGHESKRIHIEKDETPLSTPTARDSIDKLSLTGHGQPLPPGFPSPFLFPDGLSSIETLLTNIQGLLKVAIDNARAQEKQVQLEKTELKMDFLRERELRETLEKQLAMEQKNRAIVQKRLKKEKKAKRKLQEALEFETKRREQAEQTLKQAASADSLRVLNDSLTPEIEADRSGGRADAERTIQDGRLYLKTTVMY
modifications: full-length
B9: Q9WVJ3 (protein, UniProt Q9WVJ3 1-470, looked up)
chain: MRSLFFLFIVHLLALGSGKAVFKNGVSQRTFREIKEEIANYEDVAKAIINLAVYGKYQNRSYERLGLLVDTVGPRLSGSKNLEKAIQIMYQNLQQDGLENVHLEQVRIPHWERGEESAVMLEPRIHKMAILGLGSSIGTPPGGITAEVLVVASFDELQRRASEARGKIIVYNQPYTGYEKTVQYRVQGAVEAAKVGAVASLIQSVASFSIYSPHTGIQKYQDGVPKIPTACITVEDAEMMSRMASRGNKIVIHLEMGAKTYPDTDSFNTVAEITGSMYPEEVVLVSGHLDSWDVGQGALDDGGGAFISWEALSLVKDLGLRPKRTLRLVLWTAEEQGGIGASQYYELHKANISKYSLVMEADSGTFLPTGLQFTGSDKARAIMKEVMNLLQPLNVTKVFSNGEGTDINFWIQAGVPGASLRDDLYKYFFFHHSHGDTMTVMDPKQMNVAAAVWAVVAYVVADMDEMLPRS
modifications: full-length

test system: intracellular proteome of ENR+CD and ENR organoids; test: LC-MS/MS TMT proteomics of ENR+CD versus ENR organoids; assay type: cell-based, C57BL/6 mice; settings: ENR+CD versus ENR organoids, sample pairs in aggregate (n=4, 2 technical replicates from two biological donors)

Point of comparison: B5, “Average logFC” value −1.895. Against it:
- B1 — higher, 1.274
- B2 — higher, −1.61
- B3 — higher, 1.478
- B4 — higher, −1.654
- B6 — higher, 1.154
- B7 — higher, 1.366
- B8 — higher, 1.286
- B9 — higher, 1.351

same assay, conditions: protein abundance ratio ENR+CD versus ENR organoids, sample pair M1-1; LC-MS/MS TMT proteomics

Point of comparison: B9, “M1-1 Log2 Median Normalized” value 1.348. Against it:
- B1 — within 0.2 log units, 1.444
- B2 — lower, −1.209
- B3 — lower, 0.861
- B4 — lower, −1.109
- B5 — lower, −1.892
- B6 — higher, 1.573
- B7 — higher, 1.864
- B8 — lower, 0.838

same assay, conditions: protein abundance ratio ENR+CD versus ENR organoids, sample pair M1-2; LC-MS/MS TMT proteomics

Point of comparison: B9, “M1-2 Log2 Median Normalized” value 0.221. Against it:
- B1 — higher, 0.883
- B2 — lower, −1.761
- B3 — higher, 1.509
- B4 — lower, −2.606
- B5 — lower, −2.49
- B6 — higher, 1.212
- B7 — higher, 1.188
- B8 — higher, 1.286

same assay, conditions: protein abundance ratio ENR+CD versus ENR organoids, sample pair M2-1; LC-MS/MS TMT proteomics

Point of comparison: B3, “M2-1 Log2 Median Normalized” value 1.4485. Against it:
- B1 — within 0.2 log units, 1.5975
- B2 — lower, −1.8685
- B4 — lower, −2.0305
- B5 — lower, −2.2475
- B6 — lower, 0.6885
- B7 — lower, 0.7445
- B8 — within 0.2 log units, 1.3505
- B9 — higher, 2.1645

same assay, conditions: protein abundance ratio ENR+CD versus ENR organoids, sample pair M2-2; LC-MS/MS TMT proteomics

Point of comparison: B1, “M2-2 Log2 Median Normalized” value 1.172. Against it:
- B2 — lower, −1.601
- B3 — higher, 2.093
- B4 — lower, −0.87
- B5 — lower, −0.495
- B6 — within 0.2 log units, 1.141
- B7 — higher, 1.669
- B8 — higher, 1.402
- B9 — higher, 1.67

same assay, conditions: up = enriched in ENR+CD, down = enriched in ENR; FDR<0.05 and log fold change cut-off

B1 was tested, and the change was “up”.
With B2 the change was “down”.
In the case of B3, the change is reported as “up”.
B4 was tested, and the change was “down”.
In the case of B5, the change is reported as “down”.
B6 was tested, and the change was “up”.
In the case of B7, the change is reported as “up”.
For B8, the change was “up”.
B9 was tested, and the change was “up”.
